Measured values as given in patent US8470556B2, “Nucleic acids that encode antigen binding proteins that bind PAR-2” (Amgen Inc., priority 2007, dated 2013).
Positions count from the first letter of the chain named.

T1: PAR-2 (Homo sapiens, UniProt P55085)
T1 sequence (P55085 26-397): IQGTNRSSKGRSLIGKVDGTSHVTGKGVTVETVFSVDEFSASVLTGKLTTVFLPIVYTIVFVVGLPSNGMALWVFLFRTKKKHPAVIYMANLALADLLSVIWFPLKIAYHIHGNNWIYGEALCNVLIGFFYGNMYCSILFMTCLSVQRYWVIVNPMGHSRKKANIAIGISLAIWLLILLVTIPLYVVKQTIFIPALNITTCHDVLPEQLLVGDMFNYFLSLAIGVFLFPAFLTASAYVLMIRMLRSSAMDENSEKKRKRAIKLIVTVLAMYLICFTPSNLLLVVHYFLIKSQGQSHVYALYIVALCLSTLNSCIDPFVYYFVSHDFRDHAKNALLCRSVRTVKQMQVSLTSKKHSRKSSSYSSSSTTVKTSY

B1: 1A1: anti-PAR-2 monoclonal antibody, blocking; heavy SEQ ID NO: 9, light SEQ ID NO: 11 (antibody, listed as Homo sapiens, V domains shown)
VH: EVQLVQSGAEVKKPGESLKISCKGSGYNFISHWIGWVRQMPGKGLEWMGMIYPGDSDTRYSPSFQGQVTISADKSINTAYLQWRSLKASDTAMYFCARHGGITGTTFYYDFGMDVWGQGTTVTVSS
VL: SYELTQPPSVSVSPGQTARITCSGDALPKQYASWYQQKPGQAPLLVIYRDSERPSGLPERFSGSSSGTTVTLTISGVQAEDEADYYCQSADSGGSYVFGTGTKVTVL
B2: 1C7: anti-PAR-2 monoclonal antibody; heavy SEQ ID NO: 17, light SEQ ID NO: 19 (antibody, listed as Homo sapiens, V domains shown)
VH: B1 VH with N28S, I30T, H32Y, M50I, N77R, R84S, F95Y, G100K, F111Y
VL: B1 VL with D25E, L44V, R49K, L57I, G93N, S95A
B3: 9B12: anti-PAR-2 monoclonal antibody; heavy SEQ ID NO: 27, light SEQ ID NO: 29 (antibody, listed as Homo sapiens, V domains shown)
VH: QVQLVESGGGVVQPGRSLRLSCAASGFTFSSYGMHWVRQAPGKGLEWVAVIWYDGSNKYYADSVKGRFTISRDNSKNTLYLQMNSLRAEDTAVYYCARDLGAAAGTGFDYWGQGTLVTVSS
VL: QSVLTQPPSVSAAPGQKVTISCSGSSSNIGNNYVSWYQQLPGTAPKLLIYDNNKRPSGIPDRFSGSKSGTSATLGITGLQTGDEADYYCGTWDSSLSAGVVFGGGTKLTVL
B4: 2C6: binding non-blocking anti-PAR2 mAb; heavy SEQ ID NO: 23, light SEQ ID NO: 25 (antibody, listed as Homo sapiens, V domains shown)
VH: QVQLVQSGAEVKKPGASVKVSCKASGYTFTGYFFHWVRQAPGQGLEWVGWINPNSGATHFAQKFQGRVTMTRDTSISTAYMELSRLRSDDTAVYYCARDGSNWNRDYGMDVWGQGTTVTVSS
VL: QSVLTQPPSASGTPGQRVTISCSGSSSNIGINHVYWYQQLPGTAPKIFIYRNNQRPSGVPDRFSGSKSGTSASLAISGLRSEDEADYYCAVWDDSLSGVVFGGGTKLTVLG

Tests used:
Sprague Dawley rats = experiment: Carrageenan paw edema in Sprague Dawley rat (plethysmography); format: in vivo; details: antibodies IP 1.5 mg/rat, indomethacin 5 mg/kg
Method: (§1) This example describes the effects of PAR-2 antibodies on paw edema in an acute AIA model substantially as described previously. Briefly, 6-8 week old Sprague Dawley or Lewis rats (Charles River Laboratories, Wilmington, Mass.) were injected subcutaneously (SC) in the plantar region of the hind paw with 1% lambda carrageenan in one hind paw and control (saline) in the other. Blocking PAR-2 monoclonal antibody (1A1) or control (positive or negative control; see footnotes to Table 4) was administered intraperitoneally (IP) eighteen hours prior to adjuvant injection at 1.5 mg/rat (approximately 8-10 mg/kg), swelling was then measured by plethysomgraphy at selected time points. Data were expressed as volume of water in milliliters (mL) displaced per paw versus baseline measurements for that paw.

Lewis rats [1] = experiment: Acute adjuvant-induced arthritis (C/K) model, knee joint thickness; format: in vivo; details: Lewis rat, group mean ± SEM
Method: This example describes acute and chronic models of arthritis. In both models, animals are anesthetized, for example by Ketamine/Xylazine mixture (mouse mix or rat mix, respectively) or isoflurane for all intraarticular (IA), periarticular (PA) injections or intradermal (ID) injections.
Joint injections, IA or PA, are targeted at either knees or hind limb paws. PA injections are equally divided across four sites surrounding the joint of interest. Paw injections are administered ID into the plantar area of the hind paw. To serve as an internal control, one knee or hind-limb paw is injected with vehicle alone or sterile PBS. Preparation of the injection area includes shaving the joint area after animals are anesthetized, and scrubbing with an iodine solution followed by an alcohol disinfectant. All articular injections are given with a 30-gauge needle or equivalent, and when needed by a gastight (i.e., Hamilton) syringe, for small injection volumes (i.e. 10 microL).
For induction of acute AIA (aAIA), animals are injected on day zero (D0) with 1-4% lambda-carrageenan and 1-4% kaolin (C/K) by IA injection in saline. Concentrations of both compounds are dependent on intended disease severity. Total injection volumes for the inducing agent are between 10-20 microL for mice and 60-80 microL for rat. Both concentration and injection volume are consistent with published methodologies (J Clin Invest. 2003; 111(1):35-41, and J Pharmacol Exp Ther. 2006; 316(3):1017-24). Alternatively, specific PAR-2 peptide agonists, or other activators of inflammation (such as trypsin, or human beta-tryptase [J Clin Invest. 2003; 111(1):35-41, J Pharmacol Exp Ther. 2006; 316(3):1017-24, J Pharmacol Sci. 2005 97(1):38-42, and Br J Pharmacol. 1999 127(5):1083-90]) or the equivalent, may be used. Concentrations used are selected for intended disease severity, and total injection volumes are appropriate to the animal being injected.
For both acute and chronic AIA studies, caliper measurements of joint diameter are taken of all joints of interest prior to any injection. Tracking of disease may include caliper measurements of joint diameter as well as flexible tape measurements of joint circumference, and visual scoring. Alternative methods (i.e., use of a plethysmometer) may also be used. Severity of cAIA is scored by one or both of the criteria shown below:
In this manner, 6-8 week old Lewis rats were injected with C/K plus treatment (or control) in the left knee, and negative control in each right knee, as for the acute model. Joint thickness was measured at set time points after treatment, using an average of three caliper readings. The change in thickness of the left knee as compared to the right knee was expressed as percent change, and is shown in Table 3 below.

[2] = target: T2, N-terminal PAR-2/Fc (full length and truncated) (Homo sapiens, UniProt P55085); experiment: Western blot, binding to uncleaved versus clipped N-terminal PAR-2/Fc; details: for Binding to Cleavage Site Up stream: upstream binder binds only full-length PAR-2/Fc; for Binding to Cleavage Site Down stream: downstream binder binds both full length and truncated PAR-2-Fc
T2 construct: made in house; host or cells: CHO cells (10% FCS for uncleaved; serum-free for clipped)
T2 sequence (P55085 with tags, fused parts or gaps limits assumed): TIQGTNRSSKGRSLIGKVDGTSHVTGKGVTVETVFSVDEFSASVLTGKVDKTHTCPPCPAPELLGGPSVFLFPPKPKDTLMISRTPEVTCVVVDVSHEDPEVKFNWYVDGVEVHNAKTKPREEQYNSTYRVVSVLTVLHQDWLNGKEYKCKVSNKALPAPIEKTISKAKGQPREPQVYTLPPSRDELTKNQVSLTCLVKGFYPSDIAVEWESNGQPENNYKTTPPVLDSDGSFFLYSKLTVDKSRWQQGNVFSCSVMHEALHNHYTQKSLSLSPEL
Source text: N-terminal PAR-2/Fc polypeptide (SEQ ID NO:6) is expressed in suitable mammalian cells such as CHO cells. Expression supernatant from CHO expression cells cultured in serum-free media contain a CHO cell trypsin-like serine protease that cleaves PAR-2/Fc at the activation Arg-Ser bond, generating the “clipped” version of the PAR-2/Fc polypeptide. CHO expression cells cultured in 10% fetal calf serum (which contains normal levels of plasma proteinase inhibitors at concentrations far in excess of the concentration of the CHO cell trypsin-like serine protease) express uncleaved N-terminal PAR-2/Fc in culture supernatants. Both clipped and uncleaved proteins are purified using methods that are suitable for isolation and purification of proteins comprising an Fc regions (for example, using a MabSelect™ resin systems, from GE Healthcare, Piscataway, N.J.)). The resultant purified Fc-constructs are analyzed by amino terminal sequence analysis (Edman degradation), size exclusion chromatrography, absorbance spectral scan, and mass spectroscopy, as needed.
To analyze binding to uncleaved versus cleaved PAR-2, various amounts of purified uncleaved and clipped N-terminal PAR2-Fc are subjected to SDS-PAGE using 8-16% polyacrylamide gradient gels (Novex gels, Invitrogen Life Technologies) in a Tris-Glycine buffer system. Gel lanes containing See Blue standards (Novex, Invitrogen Life Technologies) for molecular weight identification are also included. Following electrophoresis, proteins are transferred from gels onto nitrocellulose membranes using a Novex XCell II Blot Module (Invitrogen Life Technologies). Membranes are blocked with 1:1, Odyssey blocking buffer, OBB, (LI-COR Biosciences):TBS (Tris Buffer Saline) overnight at 4 C with shaking. Antibodies to be analyzed are diluted in 1:1 OBB:TBS at a desired final concentration for 1 hr at room temperature. Membranes are washed extensively with 0.1% Tween 20 in TBS (3-4 changes of 100 ml over ˜1 hr). Membranes are then exposed to the appropriate secondary antibody-Alexa680 (Molecular Probes, Invitrogen Life Technologies) conjugate (goat anti-rabbit IgG, or goat anti-mouse IgG) diluted 1:5000 in 1:1 (OBB:TBS) for 1 hr at room temperature. Membranes are washed as described above, and if desired, analyzed using a LI-COR Odyssey Infrared Imaging System (LI-COR Biosciences).
(§2) Several PAR-2 antibodies were tested in different assay formats; Table 2 summarizes the results. IC50 values were determined in a FLIPR assay for Ca2+ mobilization described previously; binding to the upstream region of the cleavage site versus the downstream region of the cleavage site was determined using the Western blot assay described previously.

Lewis rats [3] = experiment: Carrageenan paw edema in Lewis rat (plethysmography); format: in vivo; details: IP 18 h prior to carrageenan, 1.5 mg/rat
Method: as §1

rats = experiment: Paw edema study, further experiments (IP versus SC, dose dependence); format: in vivo, rat
[4] = Pharmacokinetic analysis in the paw edema study; format: in vivo, rat; details: SC administered
PAR-2 = target: T1, PAR-2; experiment: FLIPR assay for Ca2+ mobilization; format: cell-based
Source text: Hybridoma clones thus generated are screened for reactivity with PAR-2. Initial screening of hybridoma supernatants may utilize a peptide ELISA, a whole cell ELISA and/or a cell-based assay suitable for high-throughput screening (fluorometric microvolume assay technology or FMAT, substantially as described by Fiscella, et al., Nature Biotechnology 21:302-307; 2003). Hybridomas that are positive in this screening method may be further cultured to provide larger amounts of antibody, which can then be purified as described below and screened by additional cell-based assay(s) (for example, a flash plate assay using cells co-expressing apoaequorin, a Ca2+-sensitive photoprotein, substantially as described by Le Poul et al., J. Biomol. Screen. 7(1):57-65; 2002, and PAR-2), or a fluorometric imaging plate reader (FLIPR) assay, which is used to determine changes in intracellular Ca2+ levels, substantially as described in S. Pitchford, Genetic Engineering News vol. 18, Number 15 (1998) and/or Sullivan et al., Methods in Molecular Biology vol. […]
as §2

Row | Molecule | Paw Edema, volume of water displaced per paw versus baseline (Sprague Dawley rats; 0 Hr) [mL] | Paw Edema, volume of water displaced per paw versus baseline (Sprague Dawley rats; 2 Hr) [mL] | Paw Edema, volume of water displaced per paw versus baseline (Sprague Dawley rats; 4 Hr) [mL] | Paw Edema, volume of water displaced per paw versus baseline (Sprague Dawley rats; 6 Hr) [mL] | change in thickness of the left knee as compared to the right knee, percent change (Lewis rats [1]; 0 Hr) [%] | Binding to Cleavage Site Up stream [2] | Paw Edema, volume of water displaced per paw versus baseline (Lewis rats [3]; 0 Hr) [mL] | Paw Edema, volume of water displaced per paw versus baseline (Lewis rats [3]; 2 Hr) [mL] | IC50 (PAR-2) [µM] | Binding to Cleavage Site Down stream [2] | further results
1 | COc1ccc2c(c1)c(CC(=O)O)c(C)n2C(=O)c1ccc(Cl)cc1 [Indomethacin, reference compound] | 0.00 ± 0.00 | 0.26 ± 0.22 | 0.28 ± 0.08 | 0.49 ± 0.16 |  |  |  |  |  |  | 
2 | SLIGRL [reference compound] |  |  |  |  | 0.00 ± 0.00 |  |  |  |  |  | 
3 | B1 | 0.00 ± 0.00 |  |  |  | 0.00 ± 0.00 | xxx | 0.00 ± 0.00 | 0.15 ± 0.06 |  |  | change in thickness of the left knee as compared to the right knee, percent change (Lewis rats [1]; 2 Hr): 1.10 ± 1.13%; change in thickness of the left knee as compared to the right knee, percent change (Lewis rats [1]; 72 Hr): 3.48 ± 0.66%; effect on paw swelling (rats; administered IP): significantly decreased paw swelling; inhibition of swelling, dose dependence (rats; administered IP): dose-dependent manner; effect on paw swelling (rats; administered SC): not when administered SC; bioavailability [4]: suboptimal
4 | B2 |  |  |  |  |  | xxx |  |  |  |  | 
5 | B3 |  |  |  |  |  |  |  |  | > 1 | xx | 
6 | B4 | 0.00 ± 0.00 | 0.57 ± 0.08 | 1.06 ± 0.16 | 1.13 ± 0.08 |  |  | 0.00 ± 0.00 | 0.22 ± 0.02 | > 1 | xx | Paw Edema, volume of water displaced per paw versus baseline (Lewis rats [3]; 4 Hr): 0.22 ± 0.05 mL; Paw Edema, volume of water displaced per paw versus baseline (Lewis rats [3]; 6 Hr): 0.32 ± 0.06 mL; Paw Edema, volume of water displaced per paw versus baseline (Lewis rats [3]; 8 Hr): 0.51 ± 0.11 mL
